{"source": "paper PMC5758563", "about": "“Structural analysis of mtEXO mitochondrial RNA degradosome reveals tight coupling of nuclease and helicase components”", "binders": {"B1": {"name": "L1 RNA (79 nt) (structured_RNA)", "RNA": "GGAACUCCAUAUAUGGGCUAUGAACUAAUGACCCCGUAAUUGAUUACUAUUAGCCCGGGCAAUGUGCACAUGUACCCUA"}}, "biological_target": "Cg-Dss1 (full-length, wild type) (Candida glabrata, UniProt Q6FJE0 24-923)", "test": "footprinting (RNase I protection); 2 mM ATP, 3 mM MgCl2; RNase I footprinting: 100 nM RNA, 150 nM protein, 20 mM Tris pH 7.4, 50 mM NaCl, 3 mM MgCl2, with or without 2 mM ATP, 30 C; EDTA added before RNase I. Crystal", "settings": "protein: recombinant; tags: His6-MBP removed by TEV; label: 32P body label", "data": [{"binder": "B1", "values": [{"measurement": "binding result", "result": "binds"}]}]}
